In patent US20240400654A1:
Where a chain is given by its changes, count along the chain named. Numbers in names are those of the source. Where “and” joins values, the source holds several entries; their conditions need not be identical. Identical values can stand only once.

B1: KB001 mouse Fab VL T52A (Fab, V domains shown)
VH: EVQLKQSGPGLVAPSQSLSITCTVSGFSLSIYSVHWVRQPPGKGLEWLGMIWGGGSSDYNSALKSRLSISKDNSKSQVFLKMNSLQTDDTAMYYCARNGNFYAMDYWGQGTSVTVSS
VL: QIVLTQSPAIMSASLGERVTMTCTASSSVSSSFLHWYQQKPGSSPQLWIYSASNLASGVPARFSGSGSGTSYSLTISSMEAEDAATYYCHQYHHSPYIYTFGGGTKLEIK
B2: KB001 mouse Fab VL T100E (Fab, V domains shown)
VH: B1 VH
VL: B1 VL with A52T, T100E
B3: KB001 mouse Fab VL Y97E (Fab, V domains shown)
VH: B1 VH
VL: B1 VL with A52T, Y97E
B4: KB001 mouse Fab VL T24K/R18S (Fab, V domains shown)
VH: B1 VH
VL: B1 VL with R18S, T24K, A52T
B5: KB001 mouse Fab VL T24I (Fab, V domains shown)
VH: B1 VH
VL: B1 VL with T24I, A52T
B6: KB001 mouse Fab VL T100S (Fab, V domains shown)
VH: B1 VH
VL: B1 VL with A52T, T100S
B7: KB001 mouse Fab VL T100W (Fab, V domains shown)
VH: B1 VH
VL: B1 VL with A52T, T100W
B8: KB001 mouse Fab VL T100Q (Fab, V domains shown)
VH: B1 VH
VL: B1 VL with A52T, T100Q
B9: KB001 mouse Fab VL S57T (Fab, V domains shown)
VH: B1 VH
VL: B1 VL with A52T, S57T
B10: KB001 mouse Fab VL N54Q (Fab, V domains shown)
VH: B1 VH
VL: B1 VL with A52T, N54Q
B11: KB001 mouse Fab VL S53K (Fab, V domains shown)
VH: B1 VH
VL: B1 VL with A52T, S53K
B12: KB001 mouse Fab VL N54S (Fab, V domains shown)
VH: B1 VH
VL: B1 VL with A52T, N54S
B13: KB001 mouse Fab VL T100G (Fab, V domains shown)
VH: B1 VH
VL: B1 VL with A52T, T100G
B14: KB001 mouse Fab VL T24L (Fab, V domains shown)
VH: B1 VH
VL: B1 VL with T24L, A52T
B15: KB001 mouse Fab VL T24A (Fab, V domains shown)
VH: B1 VH
VL: B1 VL with T24A, A52T
B16: KB001 mouse Fab VL S57P (Fab, V domains shown)
VH: B1 VH
VL: B1 VL with A52T, S57P
B17: KB001 mouse Fab VL T24M (Fab, V domains shown)
VH: B1 VH
VL: B1 VL with T24M, A52T
B18: KB001 mouse Fab VL S57E (Fab, V domains shown)
VH: B1 VH
VL: B1 VL with A52T, S57E
B19: KB001 mouse Fab VL T24N/G67D (Fab, V domains shown)
VH: B1 VH
VL: B1 VL with T24N, A52T, G67D
B20: KB001 mouse Fab VL L55P (Fab, V domains shown)
VH: B1 VH
VL: B1 VL with A52T, L55P
B21: KB001 mouse Fab VL T100H (Fab, V domains shown)
VH: B1 VH
VL: B1 VL with A52T, T100H
B22: KB001 mouse Fab VL S53Q (Fab, V domains shown)
VH: B1 VH
VL: B1 VL with A52T, S53Q
B23: KB001 mouse Fab VL S57Q (Fab, V domains shown)
VH: B1 VH
VL: B1 VL with A52T, S57Q
B24: KB001 mouse Fab VL T24Q (Fab, V domains shown)
VH: B1 VH
VL: B1 VL with T24Q, A52T
B25: KB001 mouse Fab VL T100L (Fab, V domains shown)
VH: B1 VH
VL: B1 VL with A52T, T100L
B26: KB001 mouse Fab VL N54R (Fab, V domains shown)
VH: B1 VH
VL: B1 VL with A52T, N54R
B27: KB001 mouse Fab VL T24N (Fab, V domains shown)
VH: B1 VH
VL: B1 VL with T24N, A52T
B28: KB001 mouse Fab VL T100F (Fab, V domains shown)
VH: B1 VH
VL: B1 VL with A52T, T100F
B29: KB001 mouse Fab VL L55N (Fab, V domains shown)
VH: B1 VH
VL: B1 VL with A52T, L55N
B30: KB001 mouse Fab VL T100R (Fab, V domains shown)
VH: B1 VH
VL: B1 VL with A52T, T100R
B31: KB001 mouse Fab VL T100Y (Fab, V domains shown)
VH: B1 VH
VL: B1 VL with A52T, T100Y
B32: KB001 mouse Fab VL T100M (Fab, V domains shown)
VH: B1 VH
VL: B1 VL with A52T, T100M
B33: KB001 mouse Fab VL S57N (Fab, V domains shown)
VH: B1 VH
VL: B1 VL with A52T, S57N
B34: KB001 mouse Fab VL S53N (Fab, V domains shown)
VH: B1 VH
VL: B1 VL with A52T, S53N
B35: KB001 mouse Fab VL T52S (Fab, V domains shown)
VH: B1 VH
VL: B1 VL with A52S
B36: KB001 mouse Fab VL S57R (Fab, V domains shown)
VH: B1 VH
VL: B1 VL with A52T, S57R
B37: KB001 mouse Fab VL T24G (Fab, V domains shown)
VH: B1 VH
VL: B1 VL with T24G, A52T
B38: KB001 mouse Fab VL S95Q (Fab, V domains shown)
VH: B1 VH
VL: B1 VL with A52T, S95Q
B39: KB001 mouse Fab VL S57G (Fab, V domains shown)
VH: B1 VH
VL: B1 VL with A52T, S57G
B40: KB001 mouse Fab VL H90W (Fab, V domains shown)
VH: B1 VH
VL: B1 VL with A52T, H90W
B41: KB001 mouse Fab VL S53H (Fab, V domains shown)
VH: B1 VH
VL: B1 VL with A52T, S53H

target: HRgpA-6H (Porphyromonas gingivalis) (UniProt P28784); test: ELISA, coated HRgpA-6H

Row | Binder | Ratio OD(Variant)/OD(WT) | OD450 nm
1 | B1 | 1.17 and 1.08 (2×) and 0.993 | –
2 | B2 | 1.17 and 1.19 and 1.29 | 0.613 and 0.621 and 0.674
3 | B3 | 1 | 0.793
4 | B4 | 0.99 | 0.761
5 | B5 | 0.964 | 0.741
6 | B6 | 1.15 and 1.27 and 1.19 | 0.602 and 0.664 and 0.625
7 | B7 | 1.12 | 0.585
8 | B8 | 1.12 and 1.14 and 1.15 | 0.586 and 0.596 and 0.604
9 | B9 | 1.03 | 0.843
10 | B10 | 1.11 | 0.868
11 | B11 | 1.07 | 0.841
12 | B12 | 1.07 and 0.934 and 0.99 | 0.835 and 0.732 and 0.776
13 | B13 | 1.15 and 1.14 | 0.603 and 0.597
14 | B14 | 0.979 and 0.978 and 0.867 | 0.753 and 0.752 and 0.667
15 | B15 | 0.984 | 0.757
16 | B16 | 1.05 | 0.858
17 | B17 | 0.975 and 1.04 | 0.75 and 0.797
18 | B18 | 1.03 | 0.843
19 | B19 | 0.982 | 0.755
20 | B20 | 1.06 and 0.975 and 0.924 | 0.827 and 0.764 and 0.724
21 | B21 | 1.14 and 1.21 | 0.597 and 0.631

Row | Binder | Ratio OD(Variant)/OD(WT) | OD450 nm
22 | B22 | 1.06 and 0.954 and 0.922 | 0.835 and 0.751 and 0.726
23 | B23 | 1.05 and 1.03 | 0.858 and 0.838
24 | B24 | 0.995 | 0.765
25 | B25 | 1.12 and 1.08 | 0.587 and 0.566
26 | B26 | 1.12 | 0.876
27 | B27 | 0.93 and 1.04 | 0.715 and 0.8
28 | B28 | 1.05 | 0.552
29 | B29 | 1.04 (2×) and 0.992 | 0.816 and 0.815 and 0.777
30 | B30 | 1.18 | 0.616
31 | B31 | 1.04 | 0.546
32 | B32 | 1.12 | 0.589
33 | B33 | 1.05 | 0.857
34 | B34 | 1.06 and 0.898 | 0.838 and 0.707
35 | B35 | 1.06 | 0.833
36 | B36 | 1.04 | 0.845 and 0.849
37 | B37 | 0.892 and 0.956 | 0.686 and 0.735
38 | B38 | 1.01 (2×) and 1.02 | 0.931 and 0.936 and 0.927
39 | B39 | 1.07 and 1.01 | 0.873 and 0.825
40 | B40 | 1.06 | 0.913
41 | B41 | 1.05 and 0.987 | 0.827 and 0.777
